Patent publication JP2014141434A (dated 2014)
Numbering of substitutions follows the chain as printed. Each block holds one binder with its values, some of them ahead of it.

Tests used:
Experiment in all cases: flow cytometry, transfected HEK293 cells
ヒトROBO3 = molecular target: T1, ヒトROBO3 (human, UniProt Q96MS0 21-1386)
T1 construct: also called hROBO3; pCI−hROBO3
T1 sequence: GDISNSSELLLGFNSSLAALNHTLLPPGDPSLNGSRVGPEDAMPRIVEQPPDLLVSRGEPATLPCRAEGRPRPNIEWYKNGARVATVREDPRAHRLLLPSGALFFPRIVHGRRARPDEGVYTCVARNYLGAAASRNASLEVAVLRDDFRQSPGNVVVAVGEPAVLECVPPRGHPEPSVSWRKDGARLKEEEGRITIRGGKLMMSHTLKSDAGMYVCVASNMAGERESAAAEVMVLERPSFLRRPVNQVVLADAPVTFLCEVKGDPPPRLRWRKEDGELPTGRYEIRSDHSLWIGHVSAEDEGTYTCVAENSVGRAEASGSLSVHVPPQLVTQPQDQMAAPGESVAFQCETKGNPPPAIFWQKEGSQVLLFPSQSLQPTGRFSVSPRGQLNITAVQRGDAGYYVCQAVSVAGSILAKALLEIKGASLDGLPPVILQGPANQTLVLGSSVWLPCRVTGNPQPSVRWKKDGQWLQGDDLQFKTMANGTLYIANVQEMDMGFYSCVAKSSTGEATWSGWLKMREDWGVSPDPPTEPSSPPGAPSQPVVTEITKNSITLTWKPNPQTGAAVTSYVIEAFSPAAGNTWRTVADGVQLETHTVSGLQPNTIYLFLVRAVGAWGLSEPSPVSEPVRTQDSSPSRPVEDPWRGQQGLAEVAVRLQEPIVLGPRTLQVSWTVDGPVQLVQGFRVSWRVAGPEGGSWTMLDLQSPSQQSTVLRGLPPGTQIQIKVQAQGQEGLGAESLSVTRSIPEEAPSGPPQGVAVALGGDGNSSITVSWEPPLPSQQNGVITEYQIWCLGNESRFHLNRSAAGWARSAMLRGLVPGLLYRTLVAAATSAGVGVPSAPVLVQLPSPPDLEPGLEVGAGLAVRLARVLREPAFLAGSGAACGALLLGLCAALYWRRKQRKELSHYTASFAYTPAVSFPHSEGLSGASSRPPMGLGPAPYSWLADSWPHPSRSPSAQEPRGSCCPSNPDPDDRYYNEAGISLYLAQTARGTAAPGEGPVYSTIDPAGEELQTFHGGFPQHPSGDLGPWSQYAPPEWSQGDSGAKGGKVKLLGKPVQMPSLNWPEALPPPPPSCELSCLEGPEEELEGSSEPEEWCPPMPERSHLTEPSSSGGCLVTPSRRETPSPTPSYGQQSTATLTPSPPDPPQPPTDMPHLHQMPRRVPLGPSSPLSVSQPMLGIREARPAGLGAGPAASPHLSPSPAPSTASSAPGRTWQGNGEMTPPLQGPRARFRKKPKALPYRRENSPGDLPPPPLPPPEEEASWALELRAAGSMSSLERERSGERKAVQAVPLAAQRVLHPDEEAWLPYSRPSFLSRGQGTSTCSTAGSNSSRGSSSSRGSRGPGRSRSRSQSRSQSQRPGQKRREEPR

N末端FLAG−tag付加型ヒトROBO1 = molecular target: T2, N末端FLAG−tag付加型ヒトROBO1 (human, UniProt Q9Y6N7 58-1651)
T2 construct: also called hROBO1; pCI−FLAG−hROBO1
T2 sequence (Q9Y6N7 other isoform, or with tags, fused parts or gaps): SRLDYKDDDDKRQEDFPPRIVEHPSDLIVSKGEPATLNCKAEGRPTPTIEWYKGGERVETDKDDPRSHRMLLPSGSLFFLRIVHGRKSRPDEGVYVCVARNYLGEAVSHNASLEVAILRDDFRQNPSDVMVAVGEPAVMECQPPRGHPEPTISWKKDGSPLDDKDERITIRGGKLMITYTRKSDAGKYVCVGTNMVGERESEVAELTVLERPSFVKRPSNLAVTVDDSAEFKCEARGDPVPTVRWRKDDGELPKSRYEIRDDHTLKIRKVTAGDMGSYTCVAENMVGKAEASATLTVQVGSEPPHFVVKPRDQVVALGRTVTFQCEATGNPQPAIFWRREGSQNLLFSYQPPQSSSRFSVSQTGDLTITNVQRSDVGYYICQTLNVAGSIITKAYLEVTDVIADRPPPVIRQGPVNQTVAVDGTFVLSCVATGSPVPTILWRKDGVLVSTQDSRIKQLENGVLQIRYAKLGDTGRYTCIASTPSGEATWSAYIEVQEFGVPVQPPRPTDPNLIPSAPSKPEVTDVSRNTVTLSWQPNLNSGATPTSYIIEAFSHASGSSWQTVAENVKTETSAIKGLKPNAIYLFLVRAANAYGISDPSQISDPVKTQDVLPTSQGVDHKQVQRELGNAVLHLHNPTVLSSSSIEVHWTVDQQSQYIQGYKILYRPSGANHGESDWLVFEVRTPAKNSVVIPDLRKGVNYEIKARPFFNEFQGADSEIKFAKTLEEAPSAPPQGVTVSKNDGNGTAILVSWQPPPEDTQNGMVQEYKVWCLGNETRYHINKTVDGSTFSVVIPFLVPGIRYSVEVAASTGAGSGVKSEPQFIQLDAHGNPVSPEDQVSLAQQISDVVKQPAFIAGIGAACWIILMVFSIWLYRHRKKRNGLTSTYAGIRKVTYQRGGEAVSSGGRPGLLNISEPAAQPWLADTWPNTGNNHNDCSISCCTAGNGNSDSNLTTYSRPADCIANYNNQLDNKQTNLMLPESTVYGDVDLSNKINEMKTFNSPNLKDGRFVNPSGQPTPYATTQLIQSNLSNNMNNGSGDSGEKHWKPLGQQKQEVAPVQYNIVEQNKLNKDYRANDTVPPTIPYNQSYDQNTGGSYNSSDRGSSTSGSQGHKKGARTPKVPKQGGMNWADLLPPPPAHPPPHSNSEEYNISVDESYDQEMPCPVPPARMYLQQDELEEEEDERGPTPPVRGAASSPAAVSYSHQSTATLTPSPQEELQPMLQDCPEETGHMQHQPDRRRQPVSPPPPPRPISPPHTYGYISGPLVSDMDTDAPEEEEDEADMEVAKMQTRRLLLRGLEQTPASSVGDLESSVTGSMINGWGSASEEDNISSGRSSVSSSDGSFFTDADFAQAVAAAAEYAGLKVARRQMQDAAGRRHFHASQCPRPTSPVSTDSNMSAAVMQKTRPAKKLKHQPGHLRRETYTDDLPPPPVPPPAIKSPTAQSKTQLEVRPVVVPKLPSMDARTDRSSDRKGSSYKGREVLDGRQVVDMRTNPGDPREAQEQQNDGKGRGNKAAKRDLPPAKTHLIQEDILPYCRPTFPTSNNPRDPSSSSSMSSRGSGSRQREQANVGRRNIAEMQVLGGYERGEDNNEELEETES

[1] = molecular target: T3, N末端FLAG−tag付加型カニクイザルROBO4 cynoROBO4−2 (cynomolgus monkey, UniProt Q8WZ75 28-1007 (human entry))
T3 construct: also called pCI−FLAG−cynoROBO4−2
T3 chain: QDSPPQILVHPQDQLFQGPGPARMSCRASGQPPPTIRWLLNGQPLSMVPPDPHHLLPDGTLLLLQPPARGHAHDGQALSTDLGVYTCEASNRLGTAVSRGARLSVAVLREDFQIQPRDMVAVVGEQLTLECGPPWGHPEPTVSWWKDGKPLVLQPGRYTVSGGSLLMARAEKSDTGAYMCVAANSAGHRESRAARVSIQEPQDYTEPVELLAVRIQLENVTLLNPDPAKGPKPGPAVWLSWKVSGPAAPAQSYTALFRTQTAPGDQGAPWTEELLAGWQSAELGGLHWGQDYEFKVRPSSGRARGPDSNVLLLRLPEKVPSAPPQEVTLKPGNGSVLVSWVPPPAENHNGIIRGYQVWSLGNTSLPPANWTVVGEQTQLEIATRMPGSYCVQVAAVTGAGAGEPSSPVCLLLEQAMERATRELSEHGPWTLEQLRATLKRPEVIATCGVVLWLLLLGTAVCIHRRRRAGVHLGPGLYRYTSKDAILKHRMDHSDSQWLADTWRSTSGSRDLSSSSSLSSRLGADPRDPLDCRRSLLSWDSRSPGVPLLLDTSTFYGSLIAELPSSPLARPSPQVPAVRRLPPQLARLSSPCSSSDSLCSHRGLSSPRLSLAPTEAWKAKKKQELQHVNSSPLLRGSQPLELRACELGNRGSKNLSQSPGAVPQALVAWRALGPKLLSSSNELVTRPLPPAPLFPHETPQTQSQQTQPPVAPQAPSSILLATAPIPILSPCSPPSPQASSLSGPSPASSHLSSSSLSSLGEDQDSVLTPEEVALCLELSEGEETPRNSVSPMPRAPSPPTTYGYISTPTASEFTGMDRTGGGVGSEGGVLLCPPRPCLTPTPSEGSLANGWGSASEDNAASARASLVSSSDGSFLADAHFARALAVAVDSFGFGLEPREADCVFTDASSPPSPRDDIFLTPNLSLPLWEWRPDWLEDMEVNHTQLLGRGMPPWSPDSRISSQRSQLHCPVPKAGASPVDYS

binding result (ヒトROBO3): no binding (tested: 10 μg/mL)
binding result (N末端FLAG−tag付加型ヒトROBO1): no binding (tested: 10 μg/mL)
B1: 抗ROBO4マウスモノクローナル抗体 MAb1 (antibody, V domains shown)
VH: EVQLVESGGGLVKPGGSLKLSCAASGFTFSTYAMSWVRQTPEKRLEWVATISNGGTYTYYPDSVKGRFTISRDNAENTLYLQMSSLRSEDTAMYFCARLIYYDYLDYWGHGTTLTVSS
VL: DAVMTQTPLSLPVSLGDQASISCRSSQSLENSNGNTYLNWYFQKPGQSPQLLIYRVSNRFSGVLDRFSGSGSGTDFTLKISRVEAEDFGVYFCLQVTHVPWTFGGGTKLEIKR
notes: Mouse IgG1 (gamma 1) / kappa from a hybridoma; The constant regions are not in the listing; also called MAb1

binding result [1]: binds
B2: ヒト化MAb1抗体 H−2143 (antibody, human IgG2, kappa, V domains shown)
VH: EVQLVESGGGLVQPGGSLRLSCAASGFTFSTYAMSWVRQAPGKRLEWVATISQGGTYTYYPDSVKGRFTISRDNAKNTLYLQMNSLRAEDTAVYYCARLIYYDYLDYWGQGTLVTVSS
VL: DIVMTQSPLSLPVTLGEPASISCRSSQSLENENKNLYLNWYLQKPGQSPQLLIYRVSNRFSGVPDRFSGSGSGTDFTLKISRVEAEDVGVYYCLQVTHVPWTFGPGTKVDIKR
notes: Humanised IgG2 / kappa; also called H-2143; hMAb1-H4 / hMAb1-L2
binding result (ヒトROBO3): no binding (tested: 10 μg/mL (method of 4)-4-2))
binding result (N末端FLAG−tag付加型ヒトROBO1): no binding (tested: 10 μg/mL (method of 4)-4-2))

binding result [1]: binds
B3: ヒト化MAb1抗体 H−2140 (antibody, human IgG2, kappa, V domains shown)
VH: B2 VH
VL: B2 VL with E32S, K34G, L36T
notes: Humanised IgG2 / kappa; also called H-2140; hMAb1-H4 / hMAb1-L1
binding result (ヒトROBO3): no binding (tested: 10 μg/mL (method of 4)-4-2))
binding result (N末端FLAG−tag付加型ヒトROBO1): no binding (tested: 10 μg/mL (method of 4)-4-2))

binding result [1]: binds
B4: ヒト化MAb1抗体 H−1143 (antibody, human IgG2, kappa, V domains shown)
VH: B2 VH with R44G
VL: B2 VL
notes: Humanised IgG2 / kappa; also called H-1143; hMAb1-H2 / hMAb1-L2
binding result (ヒトROBO3): no binding (tested: 10 μg/mL (method of 4)-4-2))
binding result (N末端FLAG−tag付加型ヒトROBO1): no binding (tested: 10 μg/mL (method of 4)-4-2))
